According to PMC4686830, “Ankyrin-mediated self-protection during cell invasion by the bacterial predator Bdellovibrio bacteriovorus” (Nature Communications, 2015):
Values belong to the molecule of their own block, whether it stands above or below them.

What was measured:
[1] = target: T1, Bd3459:Bd3460 complex (Bd3459^M/Bd3460) (Bdellovibrio bacteriovorus, UniProt Q6MHT0, K38M); test: X-ray crystallography, […] A, crystal soak; format: binding; settings: covalent; acylation of active-site serine (Ser70) of Bd3459; pre-grown complex crystals soaked with 2 mM penicillin G for 1 h
T1 construct: 1:1 heterodimer; with Ankyrin repeat protein (self-protection protein)
T1 sequence (Q6MHT0 38-446 K38M): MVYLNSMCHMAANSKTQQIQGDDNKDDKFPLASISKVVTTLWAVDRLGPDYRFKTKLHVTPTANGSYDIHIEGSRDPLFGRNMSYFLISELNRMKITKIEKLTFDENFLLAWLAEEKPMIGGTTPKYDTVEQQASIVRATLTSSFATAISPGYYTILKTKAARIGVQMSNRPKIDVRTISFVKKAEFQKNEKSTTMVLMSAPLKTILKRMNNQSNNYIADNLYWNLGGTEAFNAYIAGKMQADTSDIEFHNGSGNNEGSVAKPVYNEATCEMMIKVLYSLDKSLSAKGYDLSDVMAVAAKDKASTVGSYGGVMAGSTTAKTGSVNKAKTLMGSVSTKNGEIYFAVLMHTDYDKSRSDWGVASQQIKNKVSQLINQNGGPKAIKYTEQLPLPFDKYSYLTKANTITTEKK
T1 sequence (Q6MHS9 25-220 A25M partner limits assumed): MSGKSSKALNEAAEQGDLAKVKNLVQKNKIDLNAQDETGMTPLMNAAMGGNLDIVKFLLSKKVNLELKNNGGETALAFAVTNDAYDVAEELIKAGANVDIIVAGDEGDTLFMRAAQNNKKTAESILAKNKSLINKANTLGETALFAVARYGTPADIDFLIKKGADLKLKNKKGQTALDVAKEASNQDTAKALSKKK

[2] = target: Bd3459 DD-endopeptidase, purified, active site serine acylated by penicillin G (Bdellovibrio bacteriovorus HD100) (UniProt Q6MHT0); test: other fluorescence titration; as a2, but Bd3459 pre-incubated with 0.75 mM penicillin G before titration with Bd3460
[3] = target: Bd3459 DD-endopeptidase, purified (original construct, A37M start) (Bdellovibrio bacteriovorus HD100) (UniProt Q6MHT0); test: other fluorescence titration; intrinsic tryptophan fluorescence, excitation 280 nm, change of emission at 340 nm; 10 uM Bd3459 in the cuvette, Bd3460 titrated in; 25 °C; buffer B with Tris (10 mM pH 7.2, 0.25 M NaCl); one site-specific binding isotherm
[4] = target: T2, Bd3459 DD-endopeptidase, new construct starting post signal peptide with K38M, C-terminal H8 tag (Bdellovibrio bacteriovorus HD100, UniProt Q6MHT0 38-446, K38M); test: co-purification (His-tag affinity); H8-tagged endopeptidase and untagged Bd3460 co-expressed in E. coli and purified together on a His column; buffer C (20 mM imidazole pH 8.0, 0.4 M NaCl, 0.05% w/v Tween20); settings: partners not purified
T2 construct: Bd3459 of Bdellovibrio bacteriovorus HD100, predicted secreted form, starting post signal peptide with K38 mutated to become the new N-terminal methionine; The active site serine S70 is unchanged: the crystals of this complex could be acylated with penicillin G. PDB 5CEB holds the same limits with S70A; also called tagged Bd3459; Bd3459^M; source: E. coli T7 express, co-expressed from pCDF-Duet1 …
T2 sequence (looked up): T1 sequence (Q6MHT0 38-446 K38M)

[5] = target: T3, Bd0816 DD-endopeptidase S58A (K26M start, C-terminal H8 tag) (Bdellovibrio bacteriovorus HD100, UniProt Q6MPN2 26-436, K26M | S58A); test: as above; settings: partners not purified
T3 construct: Bd0816 of Bdellovibrio bacteriovorus HD100, starting at K26M; active site serine mutated to alanine (S58A); Expression of wild-type Bd0816 was toxic, so the S58A mutant was used for the complex; It is a trimer in the crystal, while a 1:1 heterodimer with Bd3460 is said to dominate in solution; also called Bd0816 S58A; tagged Bd0816; source: E. coli T7 express, co-expressed from pCDF-Duet1 with …
T3 sequence (looked up): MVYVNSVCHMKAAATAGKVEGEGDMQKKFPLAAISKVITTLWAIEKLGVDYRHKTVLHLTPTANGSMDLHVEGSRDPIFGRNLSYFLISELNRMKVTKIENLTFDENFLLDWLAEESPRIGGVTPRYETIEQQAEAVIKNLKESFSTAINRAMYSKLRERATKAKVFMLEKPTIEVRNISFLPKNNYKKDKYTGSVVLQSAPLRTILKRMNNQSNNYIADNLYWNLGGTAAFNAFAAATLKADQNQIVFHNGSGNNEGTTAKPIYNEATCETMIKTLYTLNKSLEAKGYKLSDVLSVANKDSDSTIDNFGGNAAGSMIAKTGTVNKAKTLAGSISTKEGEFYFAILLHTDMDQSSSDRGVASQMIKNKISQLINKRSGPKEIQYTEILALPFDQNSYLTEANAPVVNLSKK

Molecule: CC1(C)S[C@@H]2[C@H](NC(=O)Cc3ccccc3)C(=O)N2[C@H]1C(=O)O [penicillin G]
X-ray crystallography, 2.02 A, crystal soak [1]: acylating pre-grown Bd3459:Bd3460 complex crystals with penicillin G

fold reduction in affinity against unacylated Bd3459 [2]: 2 fold | Kd [3]: 26.8 µM | stoichiometry N [4]: 1 | stoichiometry N [5]: 1
B1: Bd3460, exported domain (amino acids 26-220), untagged, co-expressed with an endopeptidase (natural protein, Bdellovibrio bacteriovorus HD100, UniProt Q6MHS9 25-220, looked up)
chain: T1 sequence (Q6MHS9 25-220 A25M partner limits assumed)
notes: The only change is the start methionine in place of A25; also called untagged Bd3460; source: E. coli T7 express, co-expressed from pCDF-Duet1 with the H8-tagged endopeptidase, co-purified (His column)
